Results: article PMC4456216

Key:
Assay in all cases: ITC
[1] = molecular target: BMAL1 TAD S605N L606Y (mouse)
[2] = molecular target: BMAL1 TAD V602A I603F (mouse)
[3] = molecular target: BMAL1 transactivation domain (TAD), residues 579-626 (mouse)

Sequence of mouse CBP KIX domain (P45481 586-665): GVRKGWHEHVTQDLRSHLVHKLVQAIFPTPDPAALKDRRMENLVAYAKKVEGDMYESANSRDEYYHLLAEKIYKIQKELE

Work on “mouse CBP KIX domain (from UniProt P45481 586-665) (domain or fragment)” yielded a stoichiometry N [1] of 1.06, a stoichiometry N [2] of 0.82 and a stoichiometry N [3] of 0.74.
